Assay results taken from patent US8846363B2, “Compositions of and methods of using sulfatases from Flavobacterium heparinum” (priority 2007, dated 2014).
Each block holds one molecule with its values, some of them ahead of it.

Key:
[1] = substrate: CC(=O)N[C@H]1[C@H](Oc2ccc3c(C)cc(=O)oc3c2)O[C@H](COS(=O)(=O)O)[C@@H](O)[C@@H]1O; assay: Steady-state kinetics, coupled 6-O-sulfatase/β-glucosidase fluorimetric assay with 4-MU-GlcNAc,6S; format: biochemical, Flavobacterium heparinum (Pedobacter heparinus)
Description: Recombinant protein expression in the E. coli strain BL21(DE3) and one-step affinity purification by nickel chelation chromatography were as described for 2-O-sulfatase (Myette et al., 2003 J Biol Chem 278, 12157-12166). The prediction of NH2-terminal signal sequences and putative cleavage sites for the two respective proteins was made by the Von Heijne computational method (Nielsen et al., 1997 Protein Eng 10, 1-6.). Engineering and expression of these truncated proteins (minus signal sequences) were as described above for the full-length genes with the exception of substituting the 5′ primers which were used in the original PCR amplification step. These internal primers included 5′ TCTAGACATATGTCTTGCCAGCAGCCTAAAC 3′ (for ORF B; SEQ ID NO: 15) and 5′ TCTAGACATATGTCCTGCACTTCGCCGGAA 3′ (for ORF C; SEQ ID NO: 16), with the Nde 1 site underlined. As such, the ORF B gene sequence begins at Met 18 (FIG. 1). Likewise, the ORF C gene sequence begins at Ser 21 (FIG. 2). Removal of the 6×His tag was achieved by site-specific protease cleavage using the thrombin cleavage capture kit (Novagen, San Diego, Calif.). Proteolysis conditions were generally as described for other recombinantly expressed flavobacterial heparin degrading enzymes. Following concentrating the enzymes by ultrafiltration, cleaved proteins were dialyzed overnight against 4 liters of 50 mM Tris, pH 7.5 and 0.1 M NaCl, 4° C., using a 3 mL slide-a-lyzer cassette with a 10,000 molecular weight cutoff (MWCO) (Pierce Chemical, Rockland, Ill.).
Coupled Enzyme Assay for the Determination of Biochemical Reaction Conditions and Steady-State Kinetics
Indirect measurement of enzyme activity was also made using a fluorimetrically-based plate assay in which the prerequisite desulfation of the appropriate glucopyranoside 1→4 methlybelliferone substrate by either the 6-O-sulfatase or N-sulfamidase was coupled to the glucosidase-mediated hydrolysis of the stereo-specific 1→4 glycosidic linkage between the pyranose ring and the adjoining fluorophore. Release of the free fluorophore (4-MU) was monitored spectroscopically as described above for the arylsulfatase assay using 4-MU sulfate. The two sulfatase assays differed in the choice of substrate in accordance to their specificity as well as the glucosidase added during the second, […] step. For the 6-O-sulfatase, the hydrolysis of the substrate 4-MU-β-D-GlcNAc,6S at the 6-OH position was coupled to β-glucosidase purified from sweet almonds (MP Biomedicals, Solon, Ohio, Catalog No. 195197). Likewise, N-sulfamidase hydrolysis of 4-MU-α-D-GlcNS at the 2-amino position was coupled to α-glucosidase (MP Biomedicals, Catalog No. 153487). […] The presumption of the first (sulfatase) activity being the rate-limiting step was established experimentally. Reaction conditions were optimized to satisfy three related criteria: 1) linear readout of fluorescent signal which is directly proportional to sulfatase activity; 2) quantitative release of 4-MU by glucosidase activity under every biochemical condition examined and; 3) negligible fluorescent quenching of the free chromophore.
For the 6-O-sulfatase/β-glucosidase assay, the standard reaction conditions included 2 μM recombinant enzyme, 50 mM sodium acetate buffer, pH 5.5, and 5 mM CaCl2 in a 20 μl reaction volume. 4-MU-GlcNAc,6S substrate concentration was varied from 0.1-2 mM. 2 μL of enzyme were added to each well of a microtiter plate (prechilled on ice), plate gently vortexed, and contents of each well spun down for 1 minute at 500×g, 4° C. The assay was initiated by transferring the 96 well plate to a heating block prequilibrated at 30° C. Sulfatase incubation (first enzyme) was carried out at 30° C. for 20 minutes, after which enzyme activity was inactivated by heat denaturation (95° C., 10 minutes). In the second enzyme (glucosidase) step, the microtiter plate was once again chilled on ice. […]

[2] = Fluorimetric arylsulfatase assay using 4-MUS; format: biochemical
Experimental: Arylsulfatase activity was measured independently using two chromogenic substrates, 4-catechol-sulfate and 4-methylumbelliferyl-sulfate (4-MUS). The catechol substrate assay was conducted generally as described (Beil et al., 1995 Eur J Biochem 229, 385-394). Briefly, 10 mM substrate were incubated with ˜30 μM recombinant enzyme overnight (12-15 hours) at 37° C. in a 100 μL reaction which included 50 mM MES pH 7.0 and +2 mM CaCl2. Reactions were quenched by the addition of 5 μL 5M NaOH and colorimetric activity determined spectroscopically at 515 nm. Fluorimetric arylsulfatase assay using 4-MUS was as described (Morimoto-Tomita et al., 2002 J Biol Chem 277, 49175-85) with some modifications. Reaction conditions included 10 μM enzyme, 2 mM 4-MUS, 50 mM sodium acetate, pH 6.0, and 5 mM CaCl2 in a 20 μL reaction volume. The enzyme incubation temperature was 30° C. Activity was measured as a function of time ranging from 3 to 24 hours; the reactions were quenched by the addition of 200 μL 0.5 M Na2CO3, pH 10.7. Detection of fluorescent methylumbelliferone was measured at this alkaline pH using a SpectraMax microtiter plate reader ([…], Sunnyvale, Calif.) set at excitation and emission wavelengths of 360 and 440 nm, respectively. Fluorescence intensity was corrected against background (minus enzyme control). In both assays, 0.5 unit of arylsulfatase from Aerobacter aerogenes (Sigma, St. Louis, Mo.) was used as a positive control.

[3] = CE-LIF detection of sequentially degraded oligosaccharides; format: biochemical; details: after Δ4,5 glycuronidase treatment of ΔUHNSIHNSIHNS
Experimental: The APTS derivitization protocol was adapted from Chen et al. (Chen F. T. A., and Evangelista R. A. (1995) Analytical Biochemistry 230, 273-280). Briefly, 2 μl of 100 mM 9-aminopyrene-1,4,6-trisulfonate (APTS) in 25% acetic acid (v/v) were mixed with 10 μl of 1M sodium cyanoborohydride in tetrohydrofuran and 1 μmol of saccharide. The reaction mixture was incubated at 75° C. for 2 hr and was diluted 1:100 prior to CE analysis. CE-LIF was performed on a Beckman Coulter ProteomeLab PA 800 with 488 nm argon LIF module. Samples were loaded onto a N—CHO capillary (50 μm I.D.×65 cm total length) using 0.5 psi of pressure at the anode for 20 sec. Electrophoretic separations were performed using a 20 kV potential in a 100 mM sodium borate, pH 10.2 buffer for 15 min at 25° C. Fluorescence emission spectra were collected using a 520 nm narrow band filter.

[4] = other: Addition: 0.5 mM Ca^+2, pH 5.5, 30° C.
[5] = other: Addition: 5 mM Ca^+2, pH 5.5, 30° C.
[6] = other: Addition: none, pH 5.5, 30° C.

hydrolysis of 4-MU sulfate [2]: partly hydrolyze | rate of 4-MU sulfate hydrolysis relative to the ORF C protein [2]: at least 3 fold
B1: Flavobacterium heparinum 6-O-sulfatase (ORF B), recombinant, NH2-terminal truncation lacking signal sequence, SEQ ID NO: 2 (Pedobacter heparinus DSM 2366) (protein)
chain: TLMSCQQPKPAESAKRPNIVFIMTDDHTIQAISAYGSKLVKTPNLDRIANEGMLFNNCFVTNAVCGPSRATILTGKYSHLNGLTDNSKVFDSTQVIYPQLLKKAGYQTAMIGKWHLGSTPMGFDYYSILPNQGQYYQPEFIENGHLVKEKGYVTDLITDKAIGFLEKRDHDKPFLMIYQHKAPHRNWLPAPRHLGMFDDTVFPEPANLLDDFKGRGRAAKEQLMNISTDMWPAWDLKMLSTAQLDSMAKLPVSPKFKDAKGDDYQQANDPSLDKARFFEVYNRMTDAEKVQWRKVYDKRVAEFKRLNPKGADLVRWKYQQYMRDYLACVVSVDENVGRLMDYLKKIGELDNTIIVYTSDQGFYLGEHGYFDKRFMYDESFRTPLMVRYPPSVKAGSVSNAFAMNLDFAPTLLDYAGVKIPADMQGLSLRPVLDNAGKSPENWRKAVYYHYYEFPSWHMVKRHYGIRTERYKLIHFYNDIDEWELYDMQKDPHEMQNLYNDKAYEPIIKDLKVQMKKLQVQYKDTNPTEAL
notes: E. coli BL21(DE3), N-terminal 6xHis removed by thrombin
Km [1, 4]: 217 µM | kcat [1, 4]: 0.055 s⁻¹ | Km [1, 5]: 327 µM | kcat [1, 5]: 0.113 s⁻¹ | Km [1, 6]: 146 µM | kcat [1, 6]: 0.0417 s⁻¹

hydrolysis of 4-MU sulfate [2]: only negligible activity
B2: Flavobacterium heparinum N-sulfamidase (ORF C), recombinant, NH2-terminal truncation lacking signal sequence, SEQ ID NO: 4 (Pedobacter heparinus DSM 2366) (protein)
chain: SCTSPEKKTDRPNILMIMSDNQSWNHVGSYGDQTVRTPNMDRIAKEGVRFTNAFCSSPSCTPARAGMLTGQDIWRLEDGGNLWGVLPVKYKVYPDLLEEAGYAIGFQGKGWGPGSFEANKRPRNPAGNEFKSFGAFLKDKKEGPWCYWISSHEPHRPYVEGSGEKAGIDPNKVKVPAYLPDHISIRKDIADYYAAVETFDRELGEALDQLKASGELDNTVIVVCSDNGWQMPRGLANLYDFGTHVPLIISWPGKFKQDVVADNLVTLNDLAPTFLQLGKVPVPADMTGKSLLPIVEAGKKDEKPRDYVVLGRERHAFVRRHGLGYPGRAIRTKDYLYIKNYEPNRWPAGDPPFYGDIDPYMFNWPGETKYYLIEHKDDPKVKSFFELGMGKRPAEELFDINKDPDELHNLAALPEYQKIKQELVAKLRNYLVATKDPRETNGNIQIWDTAAYFSEIDKTPKPSKEMQKRFKLDSSYNYLK
notes: as for B1
desulfation of oligosaccharide at the non-reducing end [3]: does desulfate some oligosaccharides in an exolytic fashion
